Laboratory results published in patent US20090130104A1.

Target: murine PECAM-1 on cells (bEND3 endothelial cells; REN cells transfected with full-length mouse PECAM) (mouse) (UniProt Q08481)
Test: flow cytometry on CD31 positive bEND3 endothelial cells

murine PECAM-1 on cells (bEND3 endothelial cells; REN cells transfected with full-length mouse PECAM) (mouse), sequence (Q08481 18-727): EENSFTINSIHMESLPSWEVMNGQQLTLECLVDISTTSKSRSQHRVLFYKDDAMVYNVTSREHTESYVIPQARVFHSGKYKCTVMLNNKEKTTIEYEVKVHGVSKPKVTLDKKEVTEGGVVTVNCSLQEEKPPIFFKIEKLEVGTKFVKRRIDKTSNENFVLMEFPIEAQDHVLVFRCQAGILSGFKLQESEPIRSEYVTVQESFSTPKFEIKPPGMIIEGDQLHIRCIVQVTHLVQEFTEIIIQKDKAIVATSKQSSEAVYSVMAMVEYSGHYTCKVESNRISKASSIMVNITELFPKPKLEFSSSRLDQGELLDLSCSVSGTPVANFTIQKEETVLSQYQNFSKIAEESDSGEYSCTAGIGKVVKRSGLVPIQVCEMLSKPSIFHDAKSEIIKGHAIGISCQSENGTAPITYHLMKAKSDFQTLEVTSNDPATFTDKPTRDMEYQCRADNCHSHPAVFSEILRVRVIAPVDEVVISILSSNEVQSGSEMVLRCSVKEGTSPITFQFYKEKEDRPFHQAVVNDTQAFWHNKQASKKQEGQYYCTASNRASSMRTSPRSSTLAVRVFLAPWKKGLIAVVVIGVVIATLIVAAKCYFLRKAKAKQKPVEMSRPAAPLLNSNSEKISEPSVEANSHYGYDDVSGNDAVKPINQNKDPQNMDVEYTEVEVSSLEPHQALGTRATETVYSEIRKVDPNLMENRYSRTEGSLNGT

- half-maximal binding: 50 nM
Substance: anti-PECAM scFv (from antibody 390) tagged with soluble tissue factor (sTF)
